Assay results reported in patent US20110189183A1.
Substitutions are numbered along the chain they refer to.

B1: 1H12 Fab (Fab, V domains shown)
VH: EVQLVESGGGLVKAGGSLILSCGVSNFRISAHTMNWVRRVPGGGLEWVASISTSSTYRDYADAVKGRFTVSRDDLEDFVYLQMHKMRVEDTAIYYCARKGSDRLSDNDPFDAWGPGTVVTVSP
VL: GVVMTQSPSTLSASVGDTITITCRASQSIETWLAWYQQKPGKAPKLLIYKASTLKTGVPSRFSGSGSGTEFTLTISGLQFDDFATYHCQHYMPYRASFGQGTRVEIKR
B2: A4F10 Fab (Fab, V domains shown)
VH: B1 VH
VL: GVVMTQSPSTLSASVGDTITITCRASQSIETWLAWYQQKPGKAPKLLIYKASTLKTGVPSRFSGSGSGTEFTLTISGLQFDDFATYHCQHYTDHYGATFGQGTRVEIKR
B3: A1G7 Fab (Fab, V domains shown)
VH: B1 VH
VL: B2 VL with Y95R
B4: P2H12 Fab (Fab, V domains shown)
VH: B1 VH
VL: B2 VL with Y95H
B5: ID-1-RD4-P2C10 Fab (Fab, V domains shown)
VH: B1 VH
VL: B1 VL with M92K, Y94F, R95M, S97T
B6: ID-1-RD4-P2G9 Fab (Fab, V domains shown)
VH: B1 VH
VL: B1 VL with M92Q, Y94F, R95D, S97T
B7: ID-1-RD5-P2H8 Fab (Fab, V domains shown)
VH: B1 VH
VL: B1 VL with M92R, P93E, Y94W, R95H, S97T
B8: ID-2-RD4-P1A5 Fab (Fab, V domains shown)
VH: B1 VH
VL: B1 VL with M92L, P93S, R95N, S97T
B9: ID-2-RD6-P1H10 Fab (Fab, V domains shown)
VH: B1 VH
VL: B1 VL with M92Q, Y94F, R95K, S97T
B10: ID-2-RD6-P1H11 Fab (Fab, V domains shown)
VH: B1 VH
VL: B1 VL with P93A, R95D, S97T
B11: ID-3-RD6-P1H10 Fab (Fab, V domains shown)
VH: B1 VH
VL: B2 VL with D93A, Y95N
B12: ID-3-RD5-P2E9 Fab (Fab, V domains shown)
VH: B1 VH
VL: B2 VL with D93P, Y95F
B13: ID-3-RD5-P2H7 Fab (Fab, V domains shown)
VH: B1 VH
VL: B2 VL with T92R, D93A, Y95S
B14: 2G12 Polymun (Cat. No. AB002, Polymun Scientific) (antibody, V domains shown)
VH: B1 VH
VL: B1 VL with G1D, M92A, P93G, R95S, S97T
B15: 2G12 IgG (wildtype, made in house) (antibody, V domains shown)
VH: B1 VH
VL: B1 VL with G1D, M92A, P93G, R95S, S97T
B16: 1H12 IgG (antibody, V domains shown)
VH: B1 VH
VL: B1 VL
B17: 1F8 IgG (antibody, V domains shown)
VH: B1 VH
VL: B1 VL with M92L, Y94F, R95N, S97T
B18: A1E8 IgG (antibody, V domains shown)
VH: B1 VH
VL: B2 VL with Y95K
B19: A1G7 IgG (antibody, V domains shown)
VH: B1 VH
VL: B2 VL with Y95R
B20: A2A12 IgG (antibody, V domains shown)
VH: B1 VH
VL: B2 VL with D93A, Y95T
B21: P2H12 IgG (antibody, V domains shown)
VH: B1 VH
VL: B2 VL with Y95H
B22: A4F10 IgG (antibody, V domains shown)
VH: B1 VH
VL: B2 VL
B23: A5G10 IgG (antibody, V domains shown)
VH: B1 VH
VL: B2 VL with T92R, D93P, Y95T
B24: P1F9 IgG (antibody, V domains shown)
VH: B1 VH
VL: B2 VL with T92R, D93A, Y95T
B25: P4H12 IgG (antibody, V domains shown)
VH: B1 VH
VL: B2 VL with D93A, Y95R

What was measured:
[1] = target: Candida albicans (Cat. No. 10231, ATCC) whole cells (Candida albicans); assay: C. albicans FACS, mean FITC fluorescence, Fab; assay background 100
[2] = target: Candida albicans (Cat. No. 10231, ATCC) whole cells (Candida albicans); assay: luminescent C. albicans ELISA, Fab; assay background 950
[3] = target: Candida albicans (Cat. No. 10231, ATCC) whole cells (Candida albicans); assay: luminescent ELISA, Fab on C. albicans cells
[4] = target: Candida albicans (Cat. No. 10231, ATCC) whole cells (Candida albicans); assay: converted from Table 20a with a Fab of about 50 kDa
[5] = target: Candida albicans (Cat. No. 10231, ATCC) whole cells (Candida albicans); assay: colorimetric ELISA on C. albicans cells, [50% Max]
[6] = target: Candida albicans (Cat. No. 10231, ATCC) whole cells (Candida albicans); assay: FACS, IgG on fixed cells
[7] = target: Candida krusei clinical isolate, whole cells (Candida krusei); assay: FACS, IgG on fixed cells
[8] = target: Candida albicans (Cat. No. 10231, ATCC) whole cells (Candida albicans); assay: colorimetric ELISA on C. albicans cells
[9] = target: Candida albicans (Cat. No. 10231, ATCC) whole cells (Candida albicans); assay: FACS, IgG on fixed C. albicans cells, concentration at 50% maximum binding
[10] = target: Candida glabrata clinical isolate, whole cells (Candida glabrata); assay: FACS, IgG on fixed cells
[11] = target: Candida tropicalis clinical isolate, whole cells (Candida tropicalis); assay: FACS, IgG on fixed cells
[12] = target: Candida albicans (Cat. No. 10231, ATCC) whole cells (Candida albicans); assay: FACS, IgG on fixed C. albicans cells; end tied to 1H12 by Table 23
[13] = target: Candida albicans (Cat. No. 10231, ATCC) whole cells (Candida albicans); assay: luminescent ELISA on C. albicans cells
[14] = target: Candida albicans (Cat. No. 10231, ATCC) whole cells (Candida albicans); assay: FACS, IgG on fixed C. albicans cells; end tied to 1F8 by Table 23

Row | Binder | FACS (MF) [1] | ELISA (RFU) [2] | affinity [6] | affinity [7] | other results
1 | B1 | 2080 MF | 1710 RFU | – | – | Approximate Affinity [3]: 9 µg/mL; affinity (converted to molar) [4]: 180 nM
2 | B2 | – | – | – | – | Approximate Affinity [3]: 1 µg/mL; affinity (converted to molar) [4]: 20 nM
3 | B3 | – | – | – | – | Approximate Affinity [3]: 1.5 µg/mL; affinity (converted to molar) [4]: 30 nM
4 | B4 | – | – | – | – | Approximate Affinity [3]: 2 µg/mL; affinity (converted to molar) [4]: 40 nM
5 | B5 | 10600 MF | 7900 RFU | – | – | –
6 | B6 | 2350 MF | 4000 RFU | – | – | –
7 | B7 | 4930 MF | 3500 RFU | – | – | –
8 | B8 | 4000 MF | 8140 RFU | – | – | –
9 | B9 | 2190 MF | 5000 RFU | – | – | –
10 | B10 | 3760 MF | 13000 RFU | – | – | –
11 | B11 | 3380 MF | 50000 RFU | – | – | –
12 | B12 | 8910 MF | 8000 RFU | – | – | –
13 | B13 | 10600 MF | 27000 RFU | – | – | –
14 | B14 | – | – | 500 nM | 1000 nM | EC50 [5]: 76.3 nM; EC50 [8]: 500 nM; EC50 [9]: 500 nM
15 | B15 | – | – | – | – | EC50 [5]: 9.7 nM; fold higher affinity than 2G12 Polymun [8]: 8 fold; EC50 [9]: 150 nM
16 | B16 | – | – | 10 nM | 17 nM | EC50 [5]: 0.4 nM; affinity [10]: 12 nM; affinity [11]: 23 nM; fold increased binding affinity against wildtype 2G12 [12]: 30 fold; EC50 [8]: 0.82 nM; EC50 [9]: 5.2 nM; EC50 [13]: 6.1 nM
17 | B17 | – | – | – | – | EC50 [5]: 0.9 nM; EC50 [9]: 15.1 nM; fold increased binding affinity against wildtype 2G12 [14]: 10 fold
18 | B18 | – | – | 50 nM | 50 nM | –
19 | B19 | – | – | 50 nM | 50 nM | –
20 | B20 | – | – | 50 nM | 50 nM | –
21 | B21 | – | – | 50 nM | 50 nM | –
22 | B22 | – | – | 50 nM | 50 nM | –
23 | B23 | – | – | 50 nM | 50 nM | affinity [10]: 72 nM
24 | B24 | – | – | 23 nM | 27 nM | affinity [10]: 102 nM; affinity [11]: 51 nM; EC50 [8]: 3.2 nM; EC50 [13]: 19 nM
25 | B25 | – | – | – | – | affinity [11]: 21 nM
